The results in this text go back to patent publication US20250042970A1 (AURINIA PHARMACEUTICALS, published 2025).

Changes are numbered by the printed parent chain.

For orientation: Kd means the equilibrium constant for the complex coming apart.

T1: FLAG-tagged cynomolgous APRIL (cynomolgus monkey, UniProt A0ACM8R0G4 110-250 (rhesus entry))
T1 construct: FLAG-tagged, expressed with TPA signal peptide; also called cyAPRIL
T1 sequence: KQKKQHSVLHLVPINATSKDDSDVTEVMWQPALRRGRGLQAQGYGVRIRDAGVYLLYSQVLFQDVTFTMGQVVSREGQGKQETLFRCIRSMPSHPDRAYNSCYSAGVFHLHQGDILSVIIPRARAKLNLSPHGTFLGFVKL

B1: FLAG-tagged recombinant human APRIL (ligand)
chain: AVLTQKQKKQHSVLHLVPINATSKDDSDVTEVMWQPALRRGRGLQAQGYGVRIQDAGVYLLYSQVLFQDVTFTMGQVVSREGQGRQETLFRCIRSMPSHPDRAYNSCYSAGVFHLHQGDILSVIIPRARAKLNLSPHGTFLGFVKL
notes: KINEXA ligand; also called huAPRIL
B2: 6HIS-tagged murine BAFF (ligand, mouse, UniProt Q9WU72 127-309, looked up)
chain: AFQGPEETEQDVDLSAPPAPCLPGCRHSQHDDNGMNLRNIIQDCLQLIADSDTPTIRKGTYTFVPWLLSFKRGNALEEKENKIVVRQTGYFFIYSQVLYTDPIFAMGHVIQRKKVHVFGDELSLVTLFRCIQNMPKTLPNNSCYSAGIARLEEGDEIQLAIPRENAQISRNGDDTFFGALKLL
notes: also called mBAFF; muBAFF
B3: Variant BAv9-5-Ig (Fc fusion, human)
chain: AGQCSQNEYFDRLVRACIPCQLRCSSNTPPLTCQRYCNAGVTNSVKGTNAERKSSVECPPSPAPPVAGPSVFLFPPKPKDTLMISRTPEVTCVVVDVSHEDPEVQFNWYVDGVEVHNAKTKPREEQFNSTFRVVSVLTVVHQDWLNGKEYKCKVSNKGLPAPIEKTISKTKGQPREPQVYTLPPSREEMTKNQVSLTCLVKGFYPSDISVEWESNGQPENNYKTTPPMLDSDGSFFLYSKLTVDKSRWQQGNVFSCSVMHEALHNHYTQKSLSLSPGK
notes: domain: Fc; also called Variant 9-5-Ig; BAv9-5-PIg18
B4: Variant BAv8-10-Ig (Fc fusion, human)
chain: B3 chain with R12H, V14L, L22V
notes: domain: Fc; also called Variant 8-10-Ig; BAv8-10-PIg18

In test [1] the target is T2, Variant BAv9-1-Ig (human, UniProt P01859-1 99-326 = IgG part).
T2 construct: domain: Fc; also called Variant 9-1-Ig; BAv9-1-pIg18
Kind of test: KinExA. (In general: A kinetic exclusion assay measures how much of one partner remains free in solution.)

Test [2] has as its target B3. The test is described as follows: KinExA.
For test [3], the target named is T3, Variant BAv3-10-Ig (human, UniProt P01859-1 99-326 = IgG part).
T3 construct: domain: Fc; also called Variant 3-10-Ig; BAv3-10-PIg18
The test is described as follows: KinExA.

Test [4] has as its target B4. Kind of test: KinExA.
Test [5] has as its target T4, Variant BAv1-12-Ig (human, UniProt P01859-1 99-326 = IgG part).
T4 construct: domain: Fc; also called Variant 1-12-Ig
Kind of test: KinExA.

In test [6] the target is T5, Variant BAv8-9-Ig (human, UniProt P01859-1 99-326 = IgG part).
T5 construct: domain: Fc; also called Variant 8-9-Ig; BAv8-9-PIg18
Kind of test: KinExA.

For test [7], the target named is T2, Variant BAv9-1-Ig. The test is described as follows: KinExA. This is another data set of the same source.
The target of test [8] is T6, Variant BAv11-6-Ig (human, UniProt P01859-1 99-326 = IgG part).
T6 construct: domain: Fc; also called Variant 11-6-Ig; BAv11-6-PIg18
The test is described as follows: KinExA.

For a further test, the target named is T7, Variant 9-3-Ig (human, UniProt P01859-1 99-326 = IgG part).
T7 construct: domain: Fc; also called BAv9-3
Kind of test: KinExA.

For another test, the target named is T8, BAv66-Ig (human, UniProt P01859-1 99-326 = IgG part).
T8 construct: domain: Fc; also called Variant BAv66-Ig
T8 sequence (P01859 other isoform, or with tags, fused parts or gaps limits assumed): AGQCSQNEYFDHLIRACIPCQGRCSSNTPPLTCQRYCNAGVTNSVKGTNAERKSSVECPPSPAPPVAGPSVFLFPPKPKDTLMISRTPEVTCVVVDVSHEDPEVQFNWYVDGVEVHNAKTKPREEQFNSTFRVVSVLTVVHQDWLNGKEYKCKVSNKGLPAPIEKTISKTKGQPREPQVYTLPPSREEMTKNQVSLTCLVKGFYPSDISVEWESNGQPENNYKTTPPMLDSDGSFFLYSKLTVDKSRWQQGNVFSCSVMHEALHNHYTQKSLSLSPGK
Kind of test: BIACORE SPR. An excerpt:
(§1) The standard kinetic assay measures binding kinetics of trimeric ligand (e.g., human BAFF, cynomolgus monkey APRIL, mouse BAFF, or mouse APRIL) coated on sensor chips and dimeric analytes (e.g., variant BCMA-Ig fusion proteins) in the mobile phase. […] For human BAFF, cynomolgus monkey APRIL, and mouse APRIL measurements, mouse monoclonal antibody (IgG1) anti-FLAG M2 (Sigma Aldrich, Cat. No. F1804) was immobilized on CM3 sensor chips (GE Healthcare, Cat. No. BR-1005-41) according to the manufacturer's protocol. Antibody was diluted to 30 μg/ml in immobilization buffer (10 mM pH 5±0.20; GE Healthcare; GE Healthcare, Catalog No. BR-1003-51). […] Unreacted sites were quenched with 35 μl of 1M ethanolamine-HCl, pH 8.5 (GE Healthcare, GE Healthcare, Cat. No. BR-1000-50). This procedure typically yielded 3,000-4,000 response units (RU) of coupled antibody.
(§2) The fusion polypeptides were diluted in HBS-EP buffer and flowed over ligand-coated sensor chips. The variant BCMA-Ig and surrogate control fusion proteins were injected at three concentrations (1.5 nM, 15 nM, and 150 nM at 30 μl/min for 2 minutes per association phase) in a single binding cycle, followed by a 20 minute incubation with HBS-EP buffer containing no protein at the same flow rate. A similar protocol was followed for Z-TACI-Ig, except that the injections were at 4.5 nM, 45 nM, and 450 nM.
(§3) The analyses described above were performed on protein preparations of representative variant BCMA ECD-Ig fusion polypeptides, as well as the Z-TACI-Ig and [S40G]huBCMA ECD-Ig control fusion polypeptides, and the data is presented in Table 1.
Background: In SPR one partner is held on a chip, and binding of the other changes the refractive index at the surface.

Test [9] addresses B3. The test is described as follows: BIACORE SPR.
Excerpt: as §1, §2, §3

Test [10] concerns the target T3, Variant BAv3-10-Ig. Kind of test: BIACORE SPR.
Excerpt: as §1, §2, §3
Target sequence in this assay (P01859 other isoform, or with tags, fused parts or gaps mutant limits assumed): as the sequence (P01859 other isoform, or with tags, fused parts or gaps limits assumed) above, with H12R, G22L counted along it

The target of test [11] is B4. Kind of test: BIACORE SPR.
Excerpt: as §1, §2, §3
Target sequence in this assay (P01859 other isoform, or with tags, fused parts or gaps mutant limits assumed): as the sequence (P01859 other isoform, or with tags, fused parts or gaps limits assumed) above, with I14L, G22V counted along it

Test [12] deals with T4, Variant BAv1-12-Ig. The test is described as follows: BIACORE SPR.
Excerpt: as §1, §2, §3
Target sequence in this assay (P01859 other isoform, or with tags, fused parts or gaps mutant limits assumed): as the sequence (P01859 other isoform, or with tags, fused parts or gaps limits assumed) above, with H12R, I14V, R15N, G22L counted along it

The target of test [13] is T5, Variant BAv8-9-Ig. The test is described as follows: BIACORE SPR.
Excerpt: as §1, §2, §3
Target sequence in this assay (P01859 other isoform, or with tags, fused parts or gaps mutant limits assumed): as the sequence (P01859 other isoform, or with tags, fused parts or gaps limits assumed) above, with I14L, G22L counted along it

In test [14] the target is T2, Variant BAv9-1-Ig. The test is described as follows: BIACORE SPR.
Excerpt: as §1, §2, §3
Target sequence in this assay (P01859 other isoform, or with tags, fused parts or gaps mutant limits assumed): as the sequence (P01859 other isoform, or with tags, fused parts or gaps limits assumed) above, with G22L counted along it

Test [15] addresses T6, Variant BAv11-6-Ig. Kind of test: BIACORE SPR.
Excerpt: as §1, §2, §3
Target sequence in this assay (P01859 other isoform, or with tags, fused parts or gaps mutant limits assumed): as the sequence (P01859 other isoform, or with tags, fused parts or gaps limits assumed) above, with H12R, I14L, G22V counted along it

The next test concerns the target T9, Variant 50238475-Ig (human, UniProt P01859-1 99-326 = IgG part).
T9 construct: domain: Fc; also called Parent 9; Variant 50238475-PIg18
The test is described as follows: BIACORE SPR.
Excerpt: as §1, §2, §3

The target in test [16] is T10, FLAG-tagged human BAFF (human, UniProt Q9Y275 134-285, limits assumed).
T10 construct: used in BIACORE (Ex. 9) and KINEXA (Ex. 11); also called huBAFF
Kind of test: BIACORE SPR.
Excerpt: as §1, §2, §3

In test [17] the target is T1, FLAG-tagged cynomolgous APRIL. The test is described as follows: BIACORE SPR.
Excerpt: as §1, §2, §3

For a further test, the target named is membrane-huBAFF (human, UniProt Q9Y275 1-285). Kind of test: cell-based or functional assay.
The target of test [18] is T10, FLAG-tagged human BAFF. The test is described as follows: KinExA.
The target of test [19] is B1. The test is described as follows: KinExA.
Test [20] has as its target T10, FLAG-tagged human BAFF. The test is described as follows: KinExA. The source holds these as a separate data set.
Test [21] has as its target B1. Kind of test: KinExA. This is another data set of the same source.
Test [22] has as its target T10, FLAG-tagged human BAFF. The test is described as follows: BIACORE SPR. On the procedure:
(§4) For human BAFF, cynomolgus monkey APRIL, and mouse APRIL measurements, mouse monoclonal antibody (IgG1) anti-FLAG M2 (Sigma Aldrich, Cat. No. F1804) was immobilized on CM3 sensor chips (GE Healthcare, Cat. No. BR-1005-41) according to the manufacturer's protocol. Antibody was diluted to 30 μg/ml in immobilization buffer (10 mM pH 5±0.20; GE Healthcare; GE Healthcare, Catalog No. BR-1003-51). […] Unreacted sites were quenched with 35 μl of 1M ethanolamine-HCl, pH 8.5 (GE Healthcare, GE Healthcare, Cat. No. BR-1000-50). This procedure typically yielded 3,000-4,000 response units (RU) of coupled antibody.
as §2
(§5) Using available information from the structures and published literature, several residues in BAv8-10 were targeted for substitution with conserved as well as non-conserved residues and their effect on BAFF and APRIL binding was assessed by BIACORE.
The source holds these as a separate data set.

Test [23] addresses T1, FLAG-tagged cynomolgous APRIL. The test is described as follows: BIACORE SPR. As for the experimental part:
as §4, §2, §5
The source holds these as a separate data set.

T9 sequence (P01859 other isoform, or with tags, fused parts or gaps mutant limits assumed): as the sequence (P01859 other isoform, or with tags, fused parts or gaps limits assumed) above, with F10Y, P19S, G22I, T28N, L31P, T32I counted along it

Turning to B1, the Kd with Variant BAv9-1-Ig [1] was found to be 0.198 pM; in the test with Variant BAv9-5-Ig [2], 1.64 pM; with Variant BAv3-10-Ig [3] it was 0.337 pM; in the test with Variant BAv8-10-Ig [4], 3.23 pM; with Variant BAv1-12-Ig [5], 0.275 pM; in the test with Variant BAv8-9-Ig [6], 0.0224 pM. The Kd was 0.198 pM in the test with Variant BAv9-1-Ig [7], 1.63 pM in the test with Variant BAv11-6-Ig [8] and 0.0189 nM with Variant 9-3-Ig.

As for B2, the equilibrium dissociation constant (Kd) with BAv66-Ig was 0.0623 nM; with Variant BAv9-5-Ig [9] it was 0.0216 nM; with Variant BAv3-10-Ig [10], 0.0149 nM; with Variant BAv8-10-Ig [11], 0.0171 nM; with Variant BAv1-12-Ig [12], 0.0339 nM; with Variant BAv8-9-Ig [13], 0.0149 nM. For the same molecule, the figures for the Kd with Variant BAv9-1-Ig [14], with Variant BAv11-6-Ig [15] and with Variant 50238475-Ig were 0.015 nM, 0.0181 nM and 0.0264 nM, respectively.

In the case of B3, the entries for the “fold improvement KD vs control” value (in the test with FLAG-tagged human BAFF [16]; in test [17]) were 10.9 fold and 0.5 fold, respectively. Further, in the test with membrane-huBAFF, the “IC50 (read off the curve) (NFkappaB luciferase signal of HEK293-huBCMA reporter cells stimulated with HEK-293 cells expressing membrane huBAFF)” value was approximately 0.5 nM. Besides, the “fold improvement over control” value was 358 fold with FLAG-tagged human BAFF [18] and 0.1 fold in test [19]. Further, in the test with FLAG-tagged human BAFF [20], the “Selectivity for huBAFF (KD APRIL/KD BAFF)” value came out at 2.59 ratio. The “Selectivity for huAPRIL (KD BAFF/KD APRIL)” value in test [21] stood at 0.39 ratio.

Regarding B4, the “fold improvement KD vs control” value in the test with FLAG-tagged human BAFF [16] worked out at 5.3 fold; in [17], 0.3 fold. The “fold improvement over control” value in the test with FLAG-tagged human BAFF [22] was 13.1 fold; in test [23], 0.75 fold; with FLAG-tagged human BAFF [18] it was 233 fold; in test [19], 0.05 fold. In the test with FLAG-tagged human BAFF [20], the “Selectivity for huBAFF (KD APRIL/KD BAFF)” value was determined as 3.33 ratio. The “Selectivity for huAPRIL (KD BAFF/KD APRIL)” value in [21] was 0.3 ratio.
